Positions count from the first letter of the chain named. Where no end group is shown, it is not given here.
Tests used:
[1] = molecular target: T1, human REV-ERBβ ligand-binding domain (residues 381 to 579) (human, UniProt Q14995 381-579); assay: ITC; apo LBD (500 μM, syringe) titrated into ID peptide (50 μM, cell); 25°C; 20 mM Hepes pH 7.4, 50 mM KCl, 0.5 mM EDTA, 5 mM TCEP; A + B ↔ AB model in SEDPHAT; settings: both partners purified
T1 construct: cloned into pET46; Used ligand-free (apo) or loaded with heme (a small molecule; 1.05 to 2 molar equivalents); the two states are told apart by the assays; also called REV-ERBβ LBD; LBD; source: E. coli BL21(DE3), purified (IMAC, 3C protease cleavage, size exclusion); 15N-labelled in M9 minimal media for NMR; not shown: 6xHis, N-terminal, cleaved
T1 sequence (looked up): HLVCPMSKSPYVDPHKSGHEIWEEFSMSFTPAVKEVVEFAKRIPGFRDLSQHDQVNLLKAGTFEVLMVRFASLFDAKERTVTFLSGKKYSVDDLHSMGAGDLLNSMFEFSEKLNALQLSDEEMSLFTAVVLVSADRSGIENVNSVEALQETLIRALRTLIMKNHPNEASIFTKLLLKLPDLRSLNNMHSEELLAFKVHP

[2] = molecular target: T1, human REV-ERBβ ligand-binding domain …; assay: ITC; heme-bound LBD (500 μM with 1.05 molar equivalents of heme, syringe) titrated into ID peptide (50 μM, cell); 25°C; 20 mM Hepes pH 7.4, 50 mM KCl, 0.5 mM EDTA, 5 mM TCEP; A + B ↔ AB model in SEDPHAT; settings: both partners purified
[3] = molecular target: T1, human REV-ERBβ ligand-binding domain …; assay: ITC; apo LBD (300 μM, syringe; for WT RID 2 × 20 injections of 150 μM) titrated into RID construct (15 μM, cell); 25°C; Hepes assay buffer; WT RID fit to two nonsymmetric sites, microscopic K model; ΔID2 fit to A + B ↔ AB; settings: both partners purified
[4] = molecular target: T1, human REV-ERBβ ligand-binding domain …; assay: ITC; heme-bound LBD (300 μM, syringe) titrated into RID construct (15 μM, cell), 4 molar equivalents; 25°C; Hepes assay buffer; WT RID fit to A + B ↔ AB; settings: both partners purified
[5] = tested on: Bmal1 REV-RE promoter luciferase in HEK293T cells; assay: Bmal1-luciferase transcriptional repression assay; assay type: cell-based, human; settings: for fold repression of Bmal1-luciferase: HEK293T, 24 hours, relative to empty vector, n = 3 independent experiments
Description: The human REV-ERBβ LBD (residues 381 to 579) was previously cloned into the pET46 vector ([18]). The mouse NCoR RID (residues 1942 to 2208 in the X50 splice variant), which has 87% sequence identity to human NCoR RID (100% sequence identity in the ID motifs), was previously cloned into the pET32 vector ([29]). NCoR RID mutants were generated by site-directed mutagenesis: The ID1 CoRNR box motif was mutated from […] to […] (ΔID1 and ΔID1ΔID2), and the ID2 CoRNR box motif was mutated from LEDIIRKAL to TEDTTRKAL (ΔID2 and ΔID1ΔID2), as these mutations were previously reported to disrupt CoRNR box binding ([10], [30]). Heme (Sigma-Aldrich, no. 51280) was prepared either as a 1 mM stock in dimethyl sulfoxide (DMSO) stored at 4°C or 50 mM stock in 0.2 M NaOH (solutions prepared in 0.2 M NaOH were always made fresh immediately before the experiment), where indicated. […] Human embryonic kidney (HEK) 293T cells (American Type Culture Collection, no. CRL-11268) were cultured in Dulbecco’s modified eagle medium (DMEM) supplemented with 10% fetal bovine serum, 2 mM L-glutamine, and 1% penicillin-streptomycin at 37°C and 5% CO2 under standard culture conditions. The pcDNA3.1^+ expression vector containing full-length human REV-ERBβ ([31]) and the pGL3-Bmal1-luciferase construct containing the Bmal1 promoter (−816 to +99 of the mouse Bmal1 promoter region) were used in HEK293T cell transfections. […]
HEK293T cells were plated at 1.5 × 10^3 cells per well in 96-well flat-bottom plates in DMEM 24 hours before transfection. […] Luciferase activity was harvested 24 hours after transfection with Britelite Plus (PerkinElmer) and read using a BioTek Synergy plate reader. Raw luminescence values of REV-ERBβ–transfected wells were normalized to pcDNA3.1 empty vector transfection wells individually for each Bmal1-luciferase construct to determine fold repression by REV-ERBβ for each Bmal1-luciferase construct. […]

B1: NCoR ID1 peptide (peptide)
peptide: RTHRLITLADHICQIITQDFARN
modifications: not fully specified
notes: source: synthetic peptide, bought: LifeTein
B1 gave a Kd [1] of 0.49 µM and a Kd [2] of 2400 nM.

B2: mouse NCoR RID ΔID2 mutant (domain or fragment)
chain: QVPRTHRLITLADHICQIITQDFARNQVPSQASTSTFQTSPSALSSTPVRTKTSSRYSPESQSQTVLHPRPGPRVSPENLVDKSRGSRPGKSPERSHIPSEPYEPISPPQGPAVHEKQDSMLLLSQRGVDPAEQRSDSRSPGSISYLPSFFTKLESTSPMVKSKKQEIFRKLNSSGGGDSDMAAAQPGTEIFNLPAVTTSGAVSSRSHSFADPASNLGTEDTTRKALMGSFDDKVEDHGVVMSHPVGIMPGSASTSVVTSSEARRDE
B2 showed a Kd [3] of 130 nM.

B3: mouse NCoR receptor interaction domain (residues 1942 to 2208 in the X50 splice variant), wild type (domain or fragment)
chain: B2 chain with T219L, T222I, T223I
Molecule B3 has a Kd [4] of 99 nM.

B4: NCoR ID2 peptide (peptide)
peptide: DPASNLGLEDIIRKALMGSFDDK
modifications: not fully specified
notes: as for B1
B4 gave a Kd [1] of 84 µM.

B5: REV-ERBβ: full-length human REV-ERBβ expressed from pcDNA3.1 vector in HEK293T cells (protein)
chain: T1 sequence (looked up)
modifications: left off: 6xHis, N-terminal, cleaved
notes: full-length human REV-ERBβ expressed from pcDNA3.1 vector in HEK293T cells
For B5, the “fold repression of Bmal1-luciferase” value ([5]; WT Bmal1 construct) was “approximately ninefold”, the “fold repression of Bmal1-luciferase” value ([5]; mutant Bmal1 constructs (one or both DNA binding sites within REV-RE mutated)) was “approximately threefold” and the “reduction of repression in mutant vs WT Bmal1 constructs” value ([5]; pRORE, dRORE or p/dRORE mutants vs WT, ***P < 0.001 by Student's t test) was “more than half”.

Source: paper PMC7840129, “Structural basis for heme-dependent NCoR binding to the transcriptional repressor REV-ERBβ” (Science Advances, 2021)
